B1: CD112-Ig fusion protein (Fc fusion, UniProt Q92692 32-360, looked up)
chain: QDVRVQVLPEVRGQLGGTVELPCHLLPPVPGLYISLVTWQRPDAPANHQNVAAFHPKMGPSFPSPKPGSERLSFVSAKQSTGQDTEAELQDATLALHGLTVEDEGNYTCEFATFPKGSVRGMTWLRVIAKPKNQAEAQKVTFSQDPTTVALCISKEGRPPARISWLSSLDWEAKETQVSGTLAGTVTVTSRFTLVPSGRADGVTVTCKVEHESFEEPALIPVTLSVRYPPEVSISGYDDNWYLGRTDATLSCDVRSNPEPTGYDWSTTSGTFPTSAVAQGSQLVIHAVDSLFNTTFVCTVTNAVGMGRAEQVIFVRETPNTAGAGATGG
notes: Bought (R&D Systems); also called nectin-2; not shown: Ig part, detected with anti-human IgG Fc
B2: KIR2DL5B*003 allele expressed on 3T3 cells (receptor)
chain: HEGGQDKPLLSAWPSAVVPRGGHVTLLCRSRLGFTIFSLYKEDGVPVPELYNKIFWKSILMGPVTPAHAGTYRCRGSHPRSPIEWSAPSNPLVIMVTGLFGKPSLSAQPGPTVRTGENVTLSCSSRSSFDMYHLSREGRAHEPRLPAVPSVNGTFQADFPLGPATHGGTYTCFGSLHDSPYEWSDPSDPLLVSVTGNSSSSSSSPTEPSSKTGIRRHLHILIGTSVAIILFIILFFFLLHCCCSNKKNAAVMDQEPAGDRTVNREDSDDQDPQEVTYAQLDHCVFTQTKITSPSQRPKTPPTDTTMYMELPNAKPRSLSPAHKHHSQALRGSSRETTALSQNRVASSHVPAAGI
B3: PVR-Ig fusion protein (Fc fusion, UniProt P15151 27-343, looked up)
chain: GDVVVQAPTQVPGFLGDSVTLPCYLQVPNMEVTHVSQLTWARHGESGSMAVFHQTQGPSYSESKRLEFVAARLGAELRNASLRMFGLRVEDEGNYTCLFVTFPQGSRSVDIWLRVLAKPQNTAEVQKVQLTGEPVPMARCVSTGGRPPAQITWHSDLGGMPNTSQVPGFLSGTVTVTSLWILVPSSQVDGKNVTCKVEHESFEKPQLLTVNLTVYYPPEVSISGYDNNWYLGQNEATLTCDARSNPEPTGYNWSTTMGPLPPFAVAQGAQLLIRPVDKPINTTLICNVTNALGARQAELTVQVKEGPPSEHSGISRN
notes: Bought (R&D Systems); also called PVR-Ig protein; not shown: Ig part, detected with anti-human IgG Fc

Columns and labels:
[1] = target: T1, KIR2DL5 wild type (KIR2DL5A*001) expressed on cells (human, UniProt Q8N109 22-375); assay: flow cytometry, fusion protein on KIR2DL5/3T3, anti-human IgG Fc detection
T1 construct: UniProtKB Q8N109 and NP_065396.1 are printed for this entry; In the SHP-1/SHP-2 co-immunoprecipitation the cells were treated with pervanadate and the receptor was tyrosine-phosphorylated; also called KIR2DL5/3T3; WT KIR2DL5
Protocol: (§1) PVR-Ig protein was preincubated with indicated His-tagged protein and then stained KIR2DL5/3T3 cells. […] (D) Flow cytometric analysis of PVR-Ig (open) or control hIg (shaded) binding on 3T3 cells expressing WT, DO-deleted, or D2-deleted KIR2DL5. Parental 3T3 cells were used as a negative control. (E) Flow cytometric analysis of PVR-Ig or control hIg (shaded) binding on 3T3 cells expressing different KIR2DL5 alleles. In A-E, data are representative of 2 independent experiments.
(§2) Fusion protein cell binding assays. PVR-Ig, CD112-Ig, or hIgG (R&D Systems) was incubated with corresponding 3T3 cells on ice for 45 minutes, followed by incubation with APC- or PE-conjugated anti-human IgG Fc antibody (1:100; clone HP6017, BioLegend) on ice for 30 minutes. Cells were then acquired on an LSR II flow cytometer (BD Biosciences). In the anti-KIR2DL5 mAb blocking assay, KIR2DL5/3T3 cells were preincubated with a serial concentration of anti-KIR2DL5 mAb F8B30 or mIgG1 on ice for 30 minutes. After washing, the cells were then incubated with 20 μg/mL PVR-Ig or hIgG on ice for 45 minutes, followed by incubation with APC anti-human IgG Fc antibody on ice for 30 minutes. […]

[2] = target: B3; assay: flow cytometry, PVR-Ig on 3T3 cells expressing KIR2DL5 alleles
Protocol: as §1, with “FIG. 10A-E: Allelic polymorphism affected PVR binding of KIR2DL5. (A) Flow cytometric analysis of PVR-Ig or CD112-Ig (open) or control hIg (shaded) binding to KIR2DL5/3T3. (B) Flow cytometric analysis of PVR-Ig binding to KIR2DL5/3T3 in the presence of increasing concentrations of F8B30. (C) KIR2DL5 bound to different sites of PVR from other receptors. PVR-Ig protein” for “PVR-Ig protein”
as §2, with “minutes.” for “minutes. After washing, the cells were then incubated with 20 μg/mL PVR-Ig or hIgG on ice for 45 minutes, followed by incubation with APC anti-human IgG Fc antibody on ice for 30 minutes.”

[3] = target: T2, KIR2DL4 expressed on 3T3 cells (human, UniProt Q99706 22-377); assay: flow cytometry, PVR-Ig titrated on KIR2DL4/3T3
T2 construct: whole, on cells; also called KIR2DL4/3T3
Protocol: Specifically, a cell-based binding assay was performed by incubating PVR-Ig fusion protein with KIR2DL5- or KIR2DL4-expressing 3T3 cells. Conversely, KIR2DL5 was selectively bound by PVR, but not by CD112 (also known as nectin-2), another ligand for TIGIT and DNAM-1 in the nectin/nectin-like family (FIG. 10A). Furthermore, anti-KIR2DL5 mAb F8B30 blocked KIR2DL5-PVR interaction (EC₅₀=0.095 μM) (FIG. 10B). The specificity of KIR2DL5 binding to PVR was also evidenced by an intercellular interaction assay, in which 3T3 cells expressing PVR interacted with 3T3 cells expressing KIR2DL5, but not with cells expressing KIR3DL3 (FIG. 18B), a newly identified inhibitory receptor of HHLA2 (Zang, 2022; Wei 2021; Bhatt 2021).
as §2

[4] = target: T3, KIR2DL5A*005 allele expressed on 3T3 cells (human); assay: flow cytometry, PVR-Ig on 3T3 cells expressing KIR2DL5 alleles
T3 construct: also called 2D5A*005
Protocol: as §1, with “FIG. 10A-E: Allelic polymorphism affected PVR binding of KIR2DL5. (A) Flow cytometric analysis of PVR-Ig or CD112-Ig (open) or control hIg (shaded) binding to KIR2DL5/3T3. (B) Flow cytometric analysis of PVR-Ig binding to KIR2DL5/3T3 in the presence of increasing concentrations of F8B30. (C) KIR2DL5 bound to different sites of PVR from other receptors. PVR-Ig protein” for “PVR-Ig protein”
as §2, with “minutes.” for “minutes. After washing, the cells were then incubated with 20 μg/mL PVR-Ig or hIgG on ice for 45 minutes, followed by incubation with APC anti-human IgG Fc antibody on ice for 30 minutes.”

T2 sequence (Q99706 22-377): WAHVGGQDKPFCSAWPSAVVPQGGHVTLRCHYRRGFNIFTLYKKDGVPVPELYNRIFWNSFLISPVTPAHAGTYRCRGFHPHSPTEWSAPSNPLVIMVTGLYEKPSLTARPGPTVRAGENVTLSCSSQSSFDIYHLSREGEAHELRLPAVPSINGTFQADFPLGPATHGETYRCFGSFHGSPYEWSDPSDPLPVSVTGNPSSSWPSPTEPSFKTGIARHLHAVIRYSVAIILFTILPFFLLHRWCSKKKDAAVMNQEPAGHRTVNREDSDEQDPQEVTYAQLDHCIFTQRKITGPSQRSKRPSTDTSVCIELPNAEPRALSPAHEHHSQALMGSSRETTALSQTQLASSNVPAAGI

Binder: B1
binding result [1]: no binding

Binder: B2
binding result [2]: no binding

Binder: B3
binding result [3]: no binding (tested: 1.28 µM) | binding result [4]: no binding

From US20250019435A1 (ALBERT EINSTEIN COLLEGE OF MEDICINE, published 2025)
